Drawing on US20220315645A1, this text covers IC50, in vitro HBV neutralization on HepG2-NTCP cells (ELISA read-out) and IC50, in vitro HBV neutralization on HepG2-NTCP cells (HBcAg immunofluorescence read-out) for 1 substance.

For the assay, the target named is HBsAg on HBV virions (HBV from HepDE19 cell supernatant) (Hepatitis B virus). The assay is described as follows: cell-based or functional assay.

Take libivirumab (antibody): the IC50, in vitro HBV neutralization on HepG2-NTCP cells (ELISA read-out) worked out at 0.035 µg/mL and the IC50, in vitro HBV neutralization on HepG2-NTCP cells (HBcAg immunofluorescence read-out) came out at 0.128 µg/mL.
